Measured values from IntAct's records for PubMed 29072299.

B1: Mothers against decapentaplegic homolog 4 (Mus musculus), P97471 (parent)
chain: MDNMSITNTPTSNDACLSIVHSLMCHRQGGESETFAKRAIESLVKKLKEKKDELDSLITAITTNGAHPSKCVTIQRTLDGRLQVAGRKGFPHVIYARLWRWPDLHKNELKHVKYCQYAFDLKCDSVCVNPYHYERVVSPGIDLSGLTLQSNAPSMLVKDEYVHDFEGQPSLPTEGHSIQTIQHPPSNRASTETYSAPALLAPAESNATSTTNFPNIPVASTSQPASILAGSHSEGLLQIASGPQPGQQQNGFTAQPATYHHNSTTTWTGSRTAPYTPNLPHHQNGHLQHHPPMPPHPGHYWPVHNELAFQPPISNHPAPEYWCSIAYFEMDVQVGETFKVPSSCPVVTVDGYVDPSGGDRFCLGQLSNVHRTEAIERARLHIGKGVQLECKGEGDVWVRCLSDHAVFVQSYYLDREAGRAPGDAVHKIYPSAYIKVFDLRQCHRQMQQQAATAQAAAAAQAAAVAGNIPGPGSVGGIAPAISLSAAAGIGVDDLRRLCILRMSFVKGWGPDYPRQSIKETPCWIEIHLHRALQLLDEVLHTMPIADPQPLD
partner: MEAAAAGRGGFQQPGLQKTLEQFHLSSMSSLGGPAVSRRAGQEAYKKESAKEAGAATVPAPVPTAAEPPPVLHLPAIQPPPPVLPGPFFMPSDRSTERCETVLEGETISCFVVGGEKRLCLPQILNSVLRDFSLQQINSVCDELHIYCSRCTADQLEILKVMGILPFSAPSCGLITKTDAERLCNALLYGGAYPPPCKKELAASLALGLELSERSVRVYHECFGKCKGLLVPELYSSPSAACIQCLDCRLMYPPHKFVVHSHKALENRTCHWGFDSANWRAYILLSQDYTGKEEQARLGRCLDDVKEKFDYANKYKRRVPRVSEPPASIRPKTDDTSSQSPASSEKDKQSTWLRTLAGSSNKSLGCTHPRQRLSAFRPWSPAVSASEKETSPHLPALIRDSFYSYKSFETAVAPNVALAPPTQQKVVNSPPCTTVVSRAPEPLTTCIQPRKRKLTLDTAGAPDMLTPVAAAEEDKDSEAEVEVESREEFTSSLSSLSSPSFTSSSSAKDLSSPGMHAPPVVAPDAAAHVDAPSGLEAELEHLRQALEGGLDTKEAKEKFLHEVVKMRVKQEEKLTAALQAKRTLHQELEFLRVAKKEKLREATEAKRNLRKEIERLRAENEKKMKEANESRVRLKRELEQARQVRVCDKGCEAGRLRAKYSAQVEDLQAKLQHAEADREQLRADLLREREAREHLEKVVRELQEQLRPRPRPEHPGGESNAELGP

Variants of: B1
Settings: with ski_mouse Ski

Row | Variant | effect of a mutation on the interaction
1 | A432E | disrupting interaction strength
2 | Y429A | disrupting interaction strength
